From publication PMC8719770 (PLoS ONE, 2021)

Key:
[1] = biological target: T1, human PD-1 expressed on PD-1 transfected CHO-S cells (human, UniProt Q15116); assay: flow cytometry on cells; competition: PD-1-transfected CHO-S cells with serial diluted antibody and 0.5 μg/mL biotin-labeled PD-L2, 4°C, 30 minutes; streptavidin-PE; settings: one partner purified
T1 construct: human PD-1 on the surface of transfected CHO-S cells; also called cell-surface expressed PD-1; membrane PD-1; source: CHO-S, transfected, on cells

[2] = biological target: T2, recombinant cynomolgus monkey PD-1 His tag (Macaca fascicularis (cynomolgus monkey), UniProt B0LAJ3); assay: BLI; Octet Red96; antibodies (5 μg/ml) captured on protein A biosensor tips; serial dilution of PD-1 as analyte, 120 sec association, 300 sec dissociation; HBS-EP+ pH 7.4, 25°C, 1000 rpm; global 1:1 fit; apparent constants; settings: both partners purified
T2 construct: cynomolgus monkey PD-1 extracellular domain; also called cynomolgus PD-1; source: bought: R&D Systems

[3] = biological target: T1, human PD-1 expressed on PD-1 …; assay: flow cytometry on cells; competition: PD-1-transfected CHO-S cells with serial diluted antibody and 5 μg/mL biotin-labeled PD-L1, 4°C, 30 minutes; streptavidin-PE; settings: one partner purified
rat PD-1 ECD-Fc = biological target: T3, rat PD-1 ECD-Fc (Rattus norvegicus, UniProt D3ZIN8); assay: ELISA; PD-1-Fc proteins (9 ng per well) immobilized on 96-well plate overnight at 4°C; serial diluted HLX10, one hour at room temperature; detected with peroxidase-labeled goat anti-human IgG F(ab)'2; settings: both partners purified
T3 construct: rat PD-1 extracellular domain; also called murine PD-1; source: bought: Sino Biological Inc

mouse PD-1-ECD-Fc = biological target: T4, mouse PD-1-ECD-Fc (Mus musculus, UniProt Q02242); assay: as above; settings: both partners purified
T4 construct: mouse PD-1 extracellular domain; also called murine PD-1; source: bought: Sino Biological Inc

[4] = biological target: T5, human PD-1 (recombinant; construct not stated for this experiment) (Homo sapiens, UniProt Q15116); assay: SPR; format not told in the text shown (S1 Fig b, c); settings: both partners purified
T5 construct: human PD-1; the ELISA and the SPR may have used different ones; SPR methods may stand in S1 File

B1: HLX10, fully humanized IgG4 monoclonal antibody against PD-1 receptor (antibody, V domains shown)
VH: QVQLVESGGGLVKPGGSLRLSCAASGFTFSNYGMSWIRQAPGKGLEWVSTISGGGSNIYYADSVKGRFTISRDNAKNSLYLQMNSLRAEDTAVYYCVSYYYGIDFWGQGTSVTVSS
VL: DIQMTQSPSSLSASVGDRVTITCKASQDVTTAVAWYQQKPGKAPKLLIYWASTRHTGVPSRFSGSGSGTDFTLTISSLQPEDFATYYCQQHYTIPWTFGGGTKLEIK
notes: humanized VH (CDRs of chimeric c1G4 grafted on human germline IGHV3-11*04) on a human IgG4 constant region; humanized VL (CDRs of chimeric c1G4 grafted on human germline IGKV1-39*01); IgG4, hinge-stabilized; the PDB entry holds the Fab only; also called h1G4; hIG4
[1]
  IC50: 6.46 nM
[2]
  Kd: 4.78 ± 0.16 nM
  koff: 0.000745 s⁻¹
  kon: 153000 M⁻¹ s⁻¹
[3]
  IC50: 4.36 nM
Rat PD-1 ECD-Fc
  binding result: no binding
Mouse PD-1-ECD-Fc
  binding result: no binding
[4]
  Kd: 0.32 nM
